We go through 62 substances from US11260115B1, “Peptides and combination of peptides for use in immunotherapy against CLL and other cancers” (immatics biotechnologies GmbH, priority 2015, dated 2022).

The test has as its target HLA-A*02:01 (Homo sapiens, UniProt P04439, D140Y/D185E/D98H/E176V/E277Q/G131W/G231S/I119V/I121R/I166T/I218V/L300P/L318F/N151K/N90K/P208A/P217A/Q86G/Q94H/R138H/R169H/T345S). Briefly: MHC binding assay (UV-ligand exchange, β2m ELISA, peptide exchange yield). The following applies: binding to HLA-A*02:01. The method, boiled down:
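Peptide-HLA-A*02:01 complexes formed by UV-mediated exchange of a photocleavable ligand; exchange yield measured by streptavidin-capture ELISA detecting β2m with HRP anti-β2m, TMB read at 450 nm. Refolded monomer standards 15-500 ng/ml; samples diluted 100-fold.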

For “287 (FLWEEKFNSL; listed as Homo sapiens) [compound 287]”, the “Peptide Exchange (MHC class I binding score, peptide exchange yield)” value (“Peptide Exchange” for short) is listed as ““++++” (>75% = ++++)”.

As to “68 (GLDQQFAGLDL; listed as Homo sapiens) [compound 68]”, the “Peptide Exchange” value was ““+” (>10% = +)”.

“163 (SQLDISEPYKV; listed as Homo sapiens) [compound 163]”: the “Peptide Exchange” value is ““+++” (>50 = +++)”.

Take “94 (ILFPLRFTL; listed as Homo sapiens) [compound 94]”: the “Peptide Exchange” value was ““+++” (>50 = +++)”.

Turning to “127 (LLPTAPTTV; listed as Homo sapiens) [compound 127]”, the “Peptide Exchange” value was ““+++” (>50 = +++)”.

As to “338 (FLDMTNWNL; listed as Homo sapiens) [compound 338]”, the “Peptide Exchange” value is ““++++” (>75% = ++++)”.

As for “298 (IILPVEVEV; listed as Homo sapiens) [compound 298]”, the “Peptide Exchange” value is ““+++” (>50 = +++)”.

On to “125 (LLLEIGEVGKLFV; listed as Homo sapiens) [compound 125]”, for which the “Peptide Exchange” value is listed as ““+++” (>50 = +++)”.

Regarding “12 (ALGEDEITL; listed as Homo sapiens) [compound 12]”, the “Peptide Exchange” value is reported as ““+++” (>50 = +++)”.

As to “15 (ALPEVSVEA; listed as Homo sapiens) [compound 15]”, the “Peptide Exchange” value is ““+++” (>50 = +++)”.

On to “246 (KLDETGVAL; listed as Homo sapiens) [compound 246]”, for which the “Peptide Exchange” value is reported as ““++” (>20% = ++)”.

Take “38 (FIMEGGAMV; listed as Homo sapiens) [compound 38]”: the “Peptide Exchange” value is on record as ““+++” (>50 = +++)”.

In the case of “344 (VLAFENPQV; listed as Homo sapiens) [compound 344]”, the “Peptide Exchange” value is ““+++” (>50 = +++)”.

Regarding “269 (TLTDEQFLV; listed as Homo sapiens) [compound 269]”, the “Peptide Exchange” value was ““++” (>20% = ++)”.

With “244 (ILQALAVHL; listed as Homo sapiens) [compound 244]”, the “Peptide Exchange” value was ““+++” (>50 = +++)”.

On to “272 (VLDELPPLI; listed as Homo sapiens) [compound 272]”, for which the “Peptide Exchange” value was ““+++” (>50 = +++)”.

Take “182 (VLLSVPGPPV; listed as Homo sapiens) [compound 182]”: the “Peptide Exchange” value was ““+++” (>50 = +++)”.

In the case of “46 (YIIDSAQAV; listed as Homo sapiens) [compound 46]”, the “Peptide Exchange” value was ““+++” (>50 = +++)”.

For the substance “108 (VIYTLIHYI; listed as Homo sapiens) [compound 108]”, the “Peptide Exchange” value is recorded as ““+++” (>50 = +++)”.

For “78 (GLPSFLTEV; listed as Homo sapiens) [compound 78]”, the “Peptide Exchange” value was ““+++” (>50 = +++)”.

Turning to “179 (VLLGLEMTL; listed as Homo sapiens) [compound 179]”, the “Peptide Exchange” value is recorded as ““+++” (>50 = +++)”.

With “171 (TLVPPAALISI; listed as Homo sapiens) [compound 171]”, the “Peptide Exchange” value was ““+++” (>50 = +++)”.

In the case of “149 (SLDNGGYYI; listed as Homo sapiens) [compound 149]”, the “Peptide Exchange” value was ““+++” (>50 = +++)”.

As to “211 (LIDVKPLGV; listed as Homo sapiens) [compound 211]”, the “Peptide Exchange” value is ““+++” (>50 = +++)”.

In the case of “293 (ALDIMIPMV; listed as Homo sapiens) [compound 293]”, the “Peptide Exchange” value was ““+++” (>50 = +++)”.

With “381 (YLLEENKIKL; listed as Homo sapiens) [compound 381]”, the “Peptide Exchange” value is ““+++” (>50 = +++)”.

With “363 (ITTEVVNELYV; listed as Homo sapiens) [compound 363]”, the “Peptide Exchange” value is ““+++” (>50 = +++)”.

Turning to “186 (VMDPTKILI; listed as Homo sapiens) [compound 186]”, the “Peptide Exchange” value is reported as ““++++” (>75% = ++++)”.

For the substance “264 (TILDYINVV; listed as Homo sapiens) [compound 264]”, the “Peptide Exchange” value is on record as ““+++” (>50 = +++)”.

Take “65 (GLDDMKANL; listed as Homo sapiens) [compound 65]”: the “Peptide Exchange” value is ““++” (>20% = ++)”.

For the substance “36 (FILTHVDQL; listed as Homo sapiens) [compound 36]”, the “Peptide Exchange” value is ““++++” (>75% = ++++)”.

On to “324 (SLYSALQQA; listed as Homo sapiens) [compound 324]”, for which the “Peptide Exchange” value is ““+++” (>50 = +++)”.

As for “311 (LLVDVEPKV; listed as Homo sapiens) [compound 311]”, the “Peptide Exchange” value was ““+++” (>50 = +++)”.

Consider “175 (FTVPRVVAV; listed as Homo sapiens) [compound 175]”, for which the “Peptide Exchange” value is recorded as ““+++” (>50 = +++)”.

On to “56 (FVFEAPYTL; listed as Homo sapiens) [compound 56]”, for which the “Peptide Exchange” value is recorded as ““+++” (>50 = +++)”.

For the substance “146 (SIIEGPIIKL; listed as Homo sapiens) [compound 146]”, the “Peptide Exchange” value is recorded as ““+++” (>50 = +++)”.

In the case of “325 (TLENGVPCV; listed as Homo sapiens) [compound 325]”, the “Peptide Exchange” value was ““+++” (>50 = +++)”.

Turning to “245 (KIMDYSLLLGV; listed as Homo sapiens) [compound 245]”, the “Peptide Exchange” value was ““++++” (>75% = ++++)”.

In the case of “236 (GLLESGRHYL; listed as Homo sapiens) [compound 236]”, the “Peptide Exchange” value is recorded as ““+++” (>50 = +++)”.

For “97 (LLFATQITL; listed as Homo sapiens) [compound 97]”, the “Peptide Exchange” value is listed as ““++” (>20% = ++)”.

Turning to “232 (FMHQIIDQV; listed as Homo sapiens) [compound 232]”, the “Peptide Exchange” value is ““++++” (>75% = ++++)”.

With “98 (SLIKYFLFV; listed as Homo sapiens) [compound 98]”, the “Peptide Exchange” value is reported as ““+” (>10% = +)”.

“87 (HQIEAVDGEEL; listed as Homo sapiens) [compound 87]”: the “Peptide Exchange” value is on record as ““++” (>20% = ++)”.

For “226 (AMNISVPQV; listed as Homo sapiens) [compound 226]”, the “Peptide Exchange” value is ““+++” (>50 = +++)”.

In the case of “382 (YLLPLLQRL; listed as Homo sapiens) [compound 382]”, the “Peptide Exchange” value is listed as ““++++” (>75% = ++++)”.

For “111 (KLWNVAAPLYL; listed as Homo sapiens) [compound 111]”, the “Peptide Exchange” value is ““+++” (>50 = +++)”.

With “48 (FLSPQQPPLL; listed as Homo sapiens) [compound 48]”, the “Peptide Exchange” value is reported as ““+++” (>50 = +++)”.

As for “184 (VLSHNLYTV; listed as Homo sapiens) [compound 184]”, the “Peptide Exchange” value is recorded as ““+++” (>50 = +++)”.

Regarding “25 (ATYSGLESQSV; listed as Homo sapiens) [compound 25]”, the “Peptide Exchange” value is ““++” (>20% = ++)”.

On to “143 (QLLDTYFTL; listed as Homo sapiens) [compound 143]”, for which the “Peptide Exchange” value is on record as ““+++” (>50 = +++)”.

Turning to “27 (AVLGLVWLL; listed as Homo sapiens) [compound 27]”, the “Peptide Exchange” value was ““+++” (>50 = +++)”.

Consider “254 (QLIPKLIFL; listed as Homo sapiens) [compound 254]”, for which the “Peptide Exchange” value is ““+++” (>50 = +++)”.

On to “356 (FLHDHQAEL; listed as Homo sapiens) [compound 356]”, for which the “Peptide Exchange” value is ““++” (>20% = ++)”.

In the case of “206 (HMQDVRVLL; listed as Homo sapiens) [compound 206]”, the “Peptide Exchange” value is listed as ““+++” (>50 = +++)”.

Consider “221 (ALVSTIIMV; listed as Homo sapiens) [compound 221]”, for which the “Peptide Exchange” value is given as ““+” (>10% = +)”.

Regarding “88 (ILDEIGADVQA; listed as Homo sapiens) [compound 88]”, the “Peptide Exchange” value is ““+++” (>50 = +++)”.

“296 (FIAPTGHSL; listed as Homo sapiens) [compound 296]”: the “Peptide Exchange” value was ““++” (>20% = ++)”.

With “304 (LAIVPVNTL; listed as Homo sapiens) [compound 304]”, the “Peptide Exchange” value was ““+” (>10% = +)”.

On to “55 (FMEPTLLML; listed as Homo sapiens) [compound 55]”, for which the “Peptide Exchange” value is ““+++” (>50 = +++)”.

On to “47 (FLSDQPEPYL; listed as Homo sapiens) [compound 47]”, for which the “Peptide Exchange” value was ““++” (>20% = ++)”.

As for “319 (QVIPQLQTV; listed as Homo sapiens) [compound 319]”, the “Peptide Exchange” value is ““+++” (>50 = +++)”.

“134 (MLLEHGITLV; listed as Homo sapiens) [compound 134]”: the “Peptide Exchange” value is ““++++” (>75% = ++++)”.
